Measured values: patent US20220119828

Target: T1, AcTPase4xOs (enhanced, rice codon-optimized Ac transposase with SV40 NLS) (Zea mays (engineered)) (UniProt P08770)
T1 sequence (P08770 whole entry, looked up): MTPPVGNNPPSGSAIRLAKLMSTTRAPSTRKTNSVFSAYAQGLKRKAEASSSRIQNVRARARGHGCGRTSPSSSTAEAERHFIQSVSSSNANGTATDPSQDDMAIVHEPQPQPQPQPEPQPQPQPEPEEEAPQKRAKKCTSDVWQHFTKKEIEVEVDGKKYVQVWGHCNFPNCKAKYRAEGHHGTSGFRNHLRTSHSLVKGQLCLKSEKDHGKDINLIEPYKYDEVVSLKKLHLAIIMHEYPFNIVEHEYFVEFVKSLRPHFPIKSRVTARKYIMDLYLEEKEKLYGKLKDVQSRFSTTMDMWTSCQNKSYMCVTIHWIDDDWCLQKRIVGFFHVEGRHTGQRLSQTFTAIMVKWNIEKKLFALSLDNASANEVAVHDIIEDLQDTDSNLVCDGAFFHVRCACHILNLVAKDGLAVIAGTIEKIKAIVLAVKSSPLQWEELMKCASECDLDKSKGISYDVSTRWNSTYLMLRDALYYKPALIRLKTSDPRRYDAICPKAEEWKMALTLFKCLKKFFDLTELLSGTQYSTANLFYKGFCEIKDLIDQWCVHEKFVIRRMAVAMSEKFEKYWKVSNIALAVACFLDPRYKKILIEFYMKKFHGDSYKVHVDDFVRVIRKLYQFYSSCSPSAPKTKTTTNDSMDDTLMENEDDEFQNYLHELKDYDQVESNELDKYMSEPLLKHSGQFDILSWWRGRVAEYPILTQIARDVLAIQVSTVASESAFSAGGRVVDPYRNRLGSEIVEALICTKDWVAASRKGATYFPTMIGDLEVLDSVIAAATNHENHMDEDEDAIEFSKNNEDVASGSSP
Experiment: cell_activity
Conditions: pZEN31E in rice callus, heat shock 42 C 90 min; 81.1% without heat shock; 0% for pZEN30NC lacking transposase

Question: “CAGGGATGAAAGTAGGATGGGAAAATCCCGTACCGACCGTTATCGTATAACCGATTTTGTTAGTTTTATCCCGATCGATTTCGAACCCGAGGTAAAAAACGAAAACGGAACGGAAACGGGATATACAAAACGGTAAACGGAAACGGAAACGGTAGAGCTAGTTTCCCGACCGTTTCACCGGGATCCCGTTTTTAATCGGGATGATCCCGTTTCGTTACCGTATTTTCTAATTCGGGATGACTGCAATATGGCCAGCTCCAACTCCCATCCATAACCACTGAGGCCCAGCCCATGTAAGAATGCTCCAGATTTATATGGATTTTATCTATGTTTAATTAAGACTTGTGTTTACAATTTTTTATATTTGTTTTTAAGTTTTGAATATATGTTTTCATGTGTGATTTTACCGAACAAAAATACCGGTTCCCGTCCGATTTCGACTTTAACCCGACCGGATCGTATCGGTTTTCGATTACCGTATTTATCCCGTTCGTTTTCGTTACCGGTATATCCCGTTTTCGTTTCCGTCCCGCAAGTTAAATATGAAAATGAAAACGGTAGAGGTATTTTACCGACCGTTACCGACCGTTTTCATCCCTA (double strand)” was tested. Which activity (% callus lines with excision) did it give?
Answer: 95.1
